Columns and labels:
[1] = tested on: MS2 coat protein; experiment: apparent KD of MS2 coat protein, switch ON state; designed switch direction (-1 OFF switch, 1 ON switch): 1; higher = weaker reporter binding; details: FMN input: 0 or 200 uM; Eterna round: R93 (includes R88 designs)
Outline: (§1)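 The designed RNA switches were transcribed on-chip from Illumina sequencing clusters. In 100 mM Tris-HCl pH 7.5, 80 mM KCl and 4 mM MgCl2, without or with constant ligand, they were titrated with SNAP-549-labelled MS2 coat protein from 0.7 or 1.5 nM to 3 µM in twofold steps. Apparent KD is the per-design median of normalised cluster binding-curve fits.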

[2] = tested on: MS2 coat protein; experiment: apparent KD of MS2 coat protein, switch OFF state (with FMN for OFF switches, without FMN for ON switches); designed switch direction (-1 OFF switch, 1 ON switch): 1; higher = weaker reporter binding; details: FMN input: 0 or 200 uM; Eterna round: R93 (includes R88 designs)
Outline: as §1

Sequence	apparent KD of MS2 coat protein [1] [nM]	apparent KD of MS2 coat protein [2] [nM]
AAAGAAUGAAGGCAGGAUAUGUGAAAAAAAACAUGAGGAUCACCCAUGUAAUAGAUGGUGAAAAGGCAGAAGGGCCAAGAAACAA [SS 2 Tesla 6]	12.4	199
AAAGACAUGGUGUAGGAUAUAUUAAUAGUCACAUGAGGAUCACCCAUGUUCAUAUAUAUGAACGAGUAGAAGGACGAUGAAAAAA [SameState2 Malc#3]	497	205
AAAUAAAGGACUGAGGAUAUACCACAUGAAACAUGAGGAUCACCCAUGUAGAAAUACAAGCGGUGGUAGAAGGCAGUCCACAAAC [Same State 2.5i ( so lets mod hyphema)]	21.2	20.4
AAAUAAAUGACUAAGGAUAUAUCAGAAAAAACAUGAGGAUCACCCAUGUAAUAAUAAAAAGGGUGAUAGAAGGUAGUCAACAAAC [74%, More Paria 4]	25.6	118
AAAUAACAUGAGGAUCACCCAUGUUGCAACGGUAGAGGAUAUGUGGGUGAAAAUAGCAUGGCAGAAGGCUAGUGUA [SameState1 Malc#28]	172	110
AAAUUACAUGAGGAUCACCCAUGUAACGACGUUACAGGAUAUGUGGGUGAAAAUAGCAUGACAGAAGGGUACCGUA [SameState1 Malc#38]	78.8	28.4
AACAAUCUAUCUGAGGAUAUGUGUCGAAAGACAUGAGGAUCACCCAUGUAAAAACAUGAAAAGAUACAGAAGGCAGAUAGAUUGA [SS2: 1156]	18.1	29.3
AACAAUCUAUCUGAGGAUAUGUGUCGAAAGACAUGAGGAUCACCCAUGUGAAAACAUGGAAAAACACAGAAGGCAGAUAGAUUGA [SS2: 1150]	147	202
AACGAACAUGAGGAUCACCCAUGUUCCAACAGUUGAGGAUAUGUGGGUGAAAAUAGCACGGCAGAAGGCGAGUGUA [SameState1 Malc#21]	70.2	49.8
AACGAACAUGAGGAUCACCCAUGUUCCAGCAGUUGAGGAUAUGUGGGUGAAAAUAGCACGGCAGAAGGCGAGUGUA [SameState1 Malc#22]	79.8	82.1
AACUAACAUGAGGAUCACCCAUGUUACAGCAGUUGAGGAUAUGUGGGUGAAAAUAGCACGGCAGAAGGCGAGUGUA [SameState1 Malc#23]	237	150
AAGAAACAUGAGGAUCACCCAUGUAAGAUAAACACAGGAUAUGCAAAAGAAAGAAAGAAAGCAGAAGGGUGAAGAA [Mat - Same State 1 - Tesla mod - 50]	15.7	42.3
AAGAAACAUGAGGAUCACCCAUGUAAGAUAAACACAGGAUAUGCGAAAAUAAACAAAUAAGCAGAAGGGUGAAGAA [Mat - Same State 1 - Tesla mod - 65]	19.5	28.1
AAGAAACAUGAGGAUCACCCAUGUAAGAUAAACACAGGAUAUGCGAAAGAAACAAAAGAAGCAGAAGGGUGAAGAA [Mat - Same State 1 - Tesla mod - D146]	17.1	29.4
AAGAAACAUGAGGAUCACCCAUGUACCCAAAAGGGAGGAUAUGCGAAAGAAAGAAAGAAAGCAGAAGGCCCAUGAA [Artaxerxes I Longhand]	13.9	25.3
AAGAAACAUGAGGAUCACCCAUGUAGAAAUAUGGGAGGAUAUACAAGGACGGAAGUCAAGGUAGAAGGCCUAAGAA [Mat - Same State 1 - Meechl mod - D133]	26.7	112
AAGAAACAUGAGGAUCACCCAUGUAGAAAUAUGGGAGGAUAUACGAAGACGAAAGUCAAAGUAGAAGGCCUAAAGA [Mat - Same State 1 - Eli mod - D106]	20.3	61.5
AAGAAAGAAACAUAGGAUAUCAAGGAUAUAACAUGAGGAUCACCCAUGUAAAUACGAAAGUAUAAUGAGAAGGAUGGAUGAUCUAC [Meechl MS2 SS2 3]	200	79.5
AAUAAAAAUAGUUAGGAUAUGAGAACUAGGACAUGAGGAUCACCCAUGUAACUAGAACAAGUAAAUCAGAAGGGACAGGGUGAAA [JR_SS002_Sub203]	41.9	19

Sequence	apparent KD of MS2 coat protein [1] [nM]	apparent KD of MS2 coat protein [2] [nM]
AAUAAGACUAGCAAGGAUAUCGAAAACGAGACAUGAGGAUCACCCAUGUAACAAGUAAAAGUAAACGAGAAGGUGCAGGGUGAAA [JR_SS002_Sub301]	56.9	80
AAUAAUUAUAGCAAGGAUAUCGGUAUAAAGACAUGAGGAUCACCCAUGUAAUAUGGUUAAAUUUACGAGAAGGUGCAGGGUGAAA [JR_SS002_Sub009]	170	142
AAUAUACAUGAGGAUCACCCAUGUUAGGUGGGACUAGGAUAUCAAAAUAAAUAAUGAACAUGAGAAGGAGUAUCAA [JR_SS001_Sub402]	130	190
AAUAUACAUGAGGAUCACCCAUGUUAGGUGGGUCAAGGAUAUCAAUAUAAAUAAAAAACUUGAGAAGGUGAAUAAA [JR_SS001_Sub019]	133	155
AAUAUACAUGAGGAUCACCCAUGUUUUAAUAACUCAGGAUAUACAGGUGAAAACAGCAUAGUAGAAGGGAGAAAAA [SameState1 Malc#3]	18.2	23.2
AAUCCACAUGAGGAUCACCCAUGUCAGGAAAUGACAGGAUAUAGCGAAAAAAAAAAAAAGCUAGAAGGGUCUAAUU [SameState1-cac2]	31.3	107
AAUUCCACUAGCAAGGAUAUCUAAAACGAAACAUGAGGAUCACCCAUGUGACGACCACACGUAUCAGAGAAGGUGCAGGGUGAAU [JR_SS002_Sub307]	20.5	31.9
AGAAAACAUGAGGAUCACCCAUGUAGAAAUAUGGGAGGAUAUACAAAGACGAAAGUCAAAGUAGAAGGCCUGAAGA [Mat - Same State 1 - JL mod - D92]	20.4	75
AGAAAACAUGAGGAUCACCCAUGUAGGAAUAUGGGAGGAUAUACAAAGACGAAAGUCAGAGUAGAAGGCCUAAAAA [salish99-SS1-086]	17.5	92.3
AGAAAAGAAAGUAAGGAUAUGCAUAAUAAAACAUGAGGAUCACCCAUGUUAAAAAAAAGAUCAUGGUAGAAGGUACAAAAGAAAG [SS2 M 36]	17	12.3
AGAAAUAAAAGACAGGAUAUCCAAAAGAAAACAUGAGGAUCACCCAUGUAAAGAAAAUAAAAAUGGGAGAAGGGUCAAAUAAAAA [Mat - Same State 2 - JL mod - D49]	34.4	33.9
AGAAAUAAAAGAGAGGAUAUCCAAAAGAAAACAUGAGGAUCACCCAUGUAAAAGAAAAUAAAAUGGGAGAAGGCUCACAUAAAGA [Topaz 34]	21.1	37.4
AGAAAUAAAAGAGAGGAUAUUCAAAAGAAAACAUGAGGAUCACCCAUGUAAAAGAAAAUAAAUGGGAAGAAGGCUCAAAAUAAAG [Modifying JL's highscorer - Moving the G segment - Variant 2]	24.8	26.2
AGAAAUAAAAGGGAGGAUAUUCAAAAAGGGACAUGAGGAUCACCCAUGUAAAAGAAAAUAAAAUGGGAGAAGGCUCAAAAUAAAG [80%, More Helter Skelter 2]	1130	748
AGAAAUAAACCUCAGGAUAUGGGUAAAUAAACAUGAGGAUCACCCAUGUAAAAGAAAAUAAAAAACCAGAAGGGAGAAAAUAAGA [Designing denovo 1]	10.4	24.1
AGAAGACAUGAGGAUCACCCAUGUAGGAAUAUGGGAGGAUAUACAAAGACGAAAGUCAGAGUAGAAGGCCUAGGAA [salish99-SS1-090]	18.5	53
AGAUCUAGAAGGUAGGAUAUGUGAAAAAAUACAUGAGGAUCACCCAUGUGAUGAAUAAAAAGAAAAUAGAAGGACCAUCUAGAUC [Cross swing 2]	16.5	40.7
AGGAAACAUGAGGAUCACCCAUGUAAAAAUAUGGGAGGAUAUACGAAAAAAAAAAAAAAAGUAGAAGGCCUAAAAG [Garnet 10]	101	231
AUAAAACAUGAGGAUCACCCAUGUAGAAAUAUGGGAGGAUAUACUAGAUCGAAAGAUCUAGUAGAAGGCCUCAAAG [JL Mod of Eli 2]	58.8	58.9
